Measured values reported in article PMC3696004.

Assays:
[1] = target: HAFib3 (Fib3 prey fragment with an N-terminal hemagglutinin tag) (human) (UniProt Q12805); assay: ELISA; HAFib3 (250 ng/ml) captured on plate-bound anti-HA antibody; a range of concentrations of CFH678 (H or Y) in PBS, overnight at 4°C; detected with goat anti-CFH and HRP secondary antibody at 450 nm; background without HAFib3 subtracted, 8 replicates; one-site specific binding fit (GraphPad Prism)
[2] = target: CFH SCR7 bait, 402H variant (human); assay: two-hybrid; quantitative βGal assay in selective liquid culture with CPRG substrate, Miller Units; five independent yeast clones for each bait
CFH SCR7 bait, 402H variant (human), sequence (P08603 19-1231, change not shown): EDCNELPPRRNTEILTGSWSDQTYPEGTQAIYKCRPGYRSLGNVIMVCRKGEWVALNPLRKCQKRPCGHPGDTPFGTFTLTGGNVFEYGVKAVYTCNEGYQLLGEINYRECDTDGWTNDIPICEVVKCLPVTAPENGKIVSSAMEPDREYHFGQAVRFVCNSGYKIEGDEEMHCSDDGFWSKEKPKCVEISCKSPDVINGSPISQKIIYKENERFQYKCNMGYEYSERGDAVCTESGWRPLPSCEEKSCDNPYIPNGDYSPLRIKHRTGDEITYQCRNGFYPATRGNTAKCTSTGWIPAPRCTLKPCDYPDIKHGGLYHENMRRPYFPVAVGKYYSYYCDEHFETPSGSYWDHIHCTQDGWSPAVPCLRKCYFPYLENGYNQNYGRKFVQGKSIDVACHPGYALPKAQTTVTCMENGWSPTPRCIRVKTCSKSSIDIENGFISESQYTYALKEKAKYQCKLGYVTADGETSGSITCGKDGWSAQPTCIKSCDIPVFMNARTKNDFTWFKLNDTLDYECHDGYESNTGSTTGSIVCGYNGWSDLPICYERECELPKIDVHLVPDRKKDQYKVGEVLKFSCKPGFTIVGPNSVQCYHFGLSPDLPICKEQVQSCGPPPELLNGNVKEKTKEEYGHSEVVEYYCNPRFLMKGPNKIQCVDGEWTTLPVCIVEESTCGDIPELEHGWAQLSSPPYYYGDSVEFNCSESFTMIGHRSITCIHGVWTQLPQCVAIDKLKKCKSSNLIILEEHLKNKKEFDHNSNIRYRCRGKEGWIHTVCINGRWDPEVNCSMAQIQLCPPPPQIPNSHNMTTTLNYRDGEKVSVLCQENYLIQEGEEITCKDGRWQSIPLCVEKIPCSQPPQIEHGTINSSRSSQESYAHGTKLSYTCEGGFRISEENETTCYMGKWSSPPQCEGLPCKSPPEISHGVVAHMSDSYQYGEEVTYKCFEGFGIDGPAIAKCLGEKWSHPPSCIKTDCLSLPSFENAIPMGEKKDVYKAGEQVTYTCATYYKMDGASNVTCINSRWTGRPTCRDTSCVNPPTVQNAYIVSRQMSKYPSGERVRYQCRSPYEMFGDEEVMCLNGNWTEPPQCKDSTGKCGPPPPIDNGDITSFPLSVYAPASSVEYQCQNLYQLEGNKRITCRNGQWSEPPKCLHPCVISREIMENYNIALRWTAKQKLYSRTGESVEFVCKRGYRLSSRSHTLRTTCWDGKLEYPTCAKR

| Kd [1] [µM] | higher βGal activation than with CFH-Y [2] [%] | Molecule |
| --- | --- | --- |
| 0.134 | – | Recombinant CFH domains 6-8, 402H variant (CFH678-H) (domain or fragment) |
| 0.197 | – | Recombinant CFH domains 6-8, 402Y variant (CFH678-Y) (domain or fragment) |
| – | 60 | Fib3 prey fusion protein from the Y2H screen (EFEMP1/Fibulin 3 residues 289-493) (domain or fragment) RLNCEDIDECRTSSYLCQYQCVNEPGKFSCMCPQGYQVVRSRTCQDINECETTNECREDEMCWNYHGGFRCYPRNPCQDPYILTPENRCVCPVSNAMCRELPQSIVYKYMSIRSDRSVPSDIFQIQATTIYANTINTFRIKSGNENGEFYLRQTSPVSAMLVLVKSLSGPREHIVDLEMLTVSSIGTFRTSSVLRLTIIVGPFSF |
